Measurements: PMC5378477, “Crystal structure and dynamics of a lipid-induced potential desensitized-state of a pentameric ligand-gated channel” (eLife, 2017)

Molecular target: the molecule itself
Assay: crystal structure; GLIC wt in DDM with 50 uM DHA and 0.5 mg/ml E. coli polar extract; sitting drop at 4 °C, sodium acetate pH 3.9-4.2, ammonium sulfate, PEG4000; 3.25 Å

B1: GLIC wt (natural protein)
chain: QDMVSPPPPIADEPLTVNTGIYLIECYSLDDKAETFKVNAFLSLSWKDRRLAFDPVRSGVRVKTYEPEAIWIPEIRFVNVENARDADVVDISVSPDGTVQYLERFSARVLSPLDFRRYPFDSQTLHIYLIVRSVDTRNIVLAVDLEKVGKNDDVFLTGWDIESFTAVVKPANFALEDRLESKLDYQLRISRQYFSYIPNIILPMLFILFISWTAFWSTSYEANVTLVVSTLIAHIAFNILVETNLPKTPYMTYTGAIIFMIYLFYFVAVIEVTVQHYLKVESQPARAASITRASRIAFPVVFLLANIILAFLFFGF
notes: GLIC, prokaryotic pH-gated pentameric ligand-gated ion channel; construct as in Hilf and Dutzler 2009 and Bocquet et al. 2009; residues 5-315 are named in the structure; Homopentamer; Crystallised with 50 uM DHA and E. coli polar lipids; also called GLIC-pH4-DHA (the structure solved here); source: E. coli C43, purified (amylose resin, SEC in DDM); not shown: MBP, N-terminal, cleaved
For B1, the “stoichiometry N” value was 5.
